Tests used:
[1] = biological target: the molecule itself
[2] = biological target: T1, hGITR on hGITR-transfected Jurkat cells (human, UniProt Q9Y5U5 26-241); assay: cell-based or functional assay
T1 sequence: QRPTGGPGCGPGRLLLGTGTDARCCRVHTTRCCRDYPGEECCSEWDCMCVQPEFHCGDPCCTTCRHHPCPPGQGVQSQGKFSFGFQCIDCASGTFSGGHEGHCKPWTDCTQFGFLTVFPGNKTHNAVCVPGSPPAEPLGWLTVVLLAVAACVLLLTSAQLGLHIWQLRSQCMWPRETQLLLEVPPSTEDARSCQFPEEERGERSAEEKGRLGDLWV

B1: hGITRL FP with the yeast GCN4 pII trimerization domain (Fc fusion)
chain: not shown
[1]
  stoichiometry N: 6
[2]
  NFκB-luciferase reporter in hGITR-transfected Jurkat cells, agonism EC50: 0.89 nM

— publication PMC5384396 (Oncoimmunology, 2017)
